Results on one substance are retold here after publication PMC11252911 (Proceedings of the National Academy of Sciences of the …, 2024).

Test [1] addresses Pwl2-2 (Magnaporthe oryzae). Kind of test: ITC. A general note: ITC needs no label: the signal is the heat of the interaction.
For test [2], the target named is Pwl2-3 (Magnaporthe oryzae). Kind of test: ITC.

For “HMA domain of OsHIPP43 (residues 26 to 101) (from UniProt Q8LJL3 26-101) (domain or fragment)”, the Kd (as a rule, the constant that tells how readily two partners part at equilibrium) in test [1] stood at 141 nM; in test [2] it was 35 nM.
